Measured values from patent publication US20210228499A1 (DUKE UNIVERSITY, published 2021).

Legend:
[1] = target: T1, human GPR37 (hGPR37-V5, expressed in transfected HEK293 cells) (human, UniProt O15354 27-613); experiment: cell-based or functional assay
T1 sequence: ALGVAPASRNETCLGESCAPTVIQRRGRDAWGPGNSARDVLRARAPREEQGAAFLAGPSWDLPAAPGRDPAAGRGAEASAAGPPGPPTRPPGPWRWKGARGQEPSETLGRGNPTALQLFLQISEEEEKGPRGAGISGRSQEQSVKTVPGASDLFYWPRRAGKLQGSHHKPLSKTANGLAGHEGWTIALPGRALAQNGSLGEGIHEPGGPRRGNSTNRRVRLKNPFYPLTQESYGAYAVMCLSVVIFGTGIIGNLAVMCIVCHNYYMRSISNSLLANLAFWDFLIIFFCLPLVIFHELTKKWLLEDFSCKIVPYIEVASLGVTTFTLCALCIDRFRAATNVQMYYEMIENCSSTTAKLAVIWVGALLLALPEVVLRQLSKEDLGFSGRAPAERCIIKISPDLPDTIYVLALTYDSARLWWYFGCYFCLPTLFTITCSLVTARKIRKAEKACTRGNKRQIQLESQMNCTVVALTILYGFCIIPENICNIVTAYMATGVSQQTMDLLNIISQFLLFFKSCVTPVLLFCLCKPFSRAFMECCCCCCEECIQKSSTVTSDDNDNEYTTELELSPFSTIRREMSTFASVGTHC

[2] = target: T2, mouse GPR37 (native, on peritoneal macrophages and in tissues of wild-type mice) (mouse, UniProt Q9QY42 27-600); experiment: cell-based or functional assay
T2 sequence (looked up): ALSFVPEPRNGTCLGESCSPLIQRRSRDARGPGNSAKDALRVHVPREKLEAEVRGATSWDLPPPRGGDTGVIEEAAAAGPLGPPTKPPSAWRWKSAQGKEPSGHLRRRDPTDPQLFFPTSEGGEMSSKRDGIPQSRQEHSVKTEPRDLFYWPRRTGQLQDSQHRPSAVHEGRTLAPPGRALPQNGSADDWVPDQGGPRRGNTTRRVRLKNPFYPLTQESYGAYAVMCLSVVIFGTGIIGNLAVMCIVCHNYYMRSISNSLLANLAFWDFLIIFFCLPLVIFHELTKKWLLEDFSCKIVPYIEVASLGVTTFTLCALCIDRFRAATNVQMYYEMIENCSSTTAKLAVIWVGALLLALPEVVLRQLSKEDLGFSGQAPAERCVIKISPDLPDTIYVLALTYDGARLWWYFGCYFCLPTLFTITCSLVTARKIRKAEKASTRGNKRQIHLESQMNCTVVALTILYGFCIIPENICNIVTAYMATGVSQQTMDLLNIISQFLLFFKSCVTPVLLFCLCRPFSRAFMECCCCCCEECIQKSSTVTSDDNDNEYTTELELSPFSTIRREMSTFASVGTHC

## TALIDNNATEEILY [prosaposin-derived 14-mer peptide (TX14)]
[1]
  EC50 of iCa^2+ increase in HEK293 cells transfected with human GPR37 (Fura-2AM calcium imaging): 407 nM
[2]
  EC50 of iCa^2+ increase in mouse peritoneal macrophages (Fluo-4AM calcium imaging): 302 nM
